{"source": "patent US20250263470A1", "about": "(AstraZeneca / MedImmune, published 2025)", "target": "HA of influenza B virus B/Florida/4/2006 (yamagata) (influenza B virus B/Florida/4/2006)", "assay": "cell-based or functional assay"}
{"binder": "FBC-39 (antibody, V domains shown) VH: EVQLVVSGGGLVKPGGSLRLSCAASGLSFLNAWMSWVRQAPGKGLEWVGRIKSNTDGGTTDYAAPVKGRFSISRDDSKNMLFLHMSSLRTEDTAVYYCATDGPYSDDFRSGYAARYRYFGMDVWGQGTTVTVSS VL: DIQMTQSPSSVSASVGDRVTITCRASQDISTWLAWYQQKPGKAPKLLIYAASSLQSGVPSRFSGSGSGTDFTLTISSLQPEDFATYFCQQANSFPPTFGQGTKLEIK", "values": [{"measurement": "Neutralization (Ave IC50 ug/ml)", "value": 0.046, "unit": "µg/mL"}]}
{"binder": "FBC-39 FSL (antibody, V domains shown) VH: EVQLVESGGGLVKPGGSLRLSCAASGFSFLNAWMSWVRQAPGKGLEWVGRIKSNTDGGTTDYAAPVKGRFTISRDDSKNTLYLQMSSLKTEDTAVYYCTTDGPYSDDFRSGYAARYRYFGMDVWGQGTTVTVSS VL: DIQMTQSPSSVSASVGDRVTITCRASQDISTWLAWYQQKPGKAPKLLIYAASSLQSGVPSRFSGSGSGTDFTLTISSLQPEDFATYYCQQANSFPPTFGQGTKLEIK", "values": [{"measurement": "Neutralization (Ave IC50 ug/ml)", "value": 0.017, "unit": "µg/mL"}]}
{"binder": "FBC-39 LTL (antibody, V domains shown) VH: EVQLVESGGGLVKPGGSLRLSCAASGLTFLNAWMSWVRQAPGKGLEWVGRIKSNTDGGTTDYAAPVKGRFTISRDDSKNTLYLQMSSLKTEDTAVYYCTTDGPYSDDFRSGYAARYRYFGMDVWGQGTTVTVSS VL: DIQMTQSPSSVSASVGDRVTITCRASQDISTWLAWYQQKPGKAPKLLIYAASSLQSGVPSRFSGSGSGTDFTLTISSLQPEDFATYYCQQANSFPPTFGQGTKLEIK", "values": [{"measurement": "Neutralization (Ave IC50 ug/ml)", "value": 0.023, "unit": "µg/mL"}]}
{"binder": "FBC-39 FTL (antibody, V domains shown) VH: EVQLVESGGGLVKPGGSLRLSCAASGFTFLNAWMSWVRQAPGKGLEWVGRIKSNTDGGTTDYAAPVKGRFTISRDDSKNTLYLQMSSLKTEDTAVYYCTTDGPYSDDFRSGYAARYRYFGMDVWGQGTTVTVSS VL: DIQMTQSPSSVSASVGDRVTITCRASQDISTWLAWYQQKPGKAPKLLIYAASSLQSGVPSRFSGSGSGTDFTLTISSLQPEDFATYYCQQANSFPPTFGQGTKLEIK", "values": [{"measurement": "Neutralization (Ave IC50 ug/ml)", "value": 0.014, "unit": "µg/mL"}]}
{"binder": "FBC-39 LSL (antibody, V domains shown) VH: EVQLVESGGGLVKPGGSLRLSCAASGLSFLNAWMSWVRQAPGKGLEWVGRIKSNTDGGTTDYAAPVKGRFTISRDDSKNTLYLQMSSLKTEDTAVYYCTTDGPYSDDFRSGYAARYRYFGMDVWGQGTTVTVSS VL: DIQMTQSPSSVSASVGDRVTITCRASQDISTWLAWYQQKPGKAPKLLIYAASSLQSGVPSRFSGSGSGTDFTLTISSLQPEDFATYYCQQANSFPPTFGQGTKLEIK", "values": [{"measurement": "Neutralization (Ave IC50 ug/ml)", "value": 0.016, "unit": "µg/mL"}]}
{"binder": "FBD-56 (antibody, V domains shown) VH: EVQLVESGGHLVQPGRSLRLSCAASGFTFEDYAMNWVRQAPGKGLEWVSVISWDSGRIGYADSVKGRFTISRDNAKNSSYLQMNSLRPEDTALYYCVRDMLAYYSDNSGKKYNVYGMDVWGQGTTVTVSS VL: EIVLTQSPATLSLSPGERATLSCRASQSVSTFLAWYQQKPGQAPRLLMYDASNRATGIPARFSGSGSGTDFTLTISSLEPEDFAIYYCQQRSHWPPIFGQGTRLEIK", "values": [{"measurement": "Neutralization (Ave IC50 ug/ml)", "value": 0.013, "unit": "µg/mL"}]}
{"binder": "FBD-94 (antibody, V domains shown) VH: EVQLVESGGGLVQPGRSLRLSCAVSGFIFEDYAINWVRQAPGKGLEWVSIISWDSGRIGYADSVRGRFTISRDNAKNSSFLQMNSLRPEDTAVYYCVKDMLAYYYDGSGIRYNLYGMDVWGQGTTVTVSS VL: EIVLTQSPATLSLSPGERATLSCRASRSITTFLAWYQQKPGQAPRLLIYDASNRATGVPARFSGSGSGTDFTLTINSLEPDDFAIYYCQQRDHWPPIFGQGTRLEIK", "values": [{"measurement": "Neutralization (Ave IC50 ug/ml)", "value": 0.016, "unit": "µg/mL"}]}
